Laboratory results reported in PMC3941051.

Target: His-FLAG-Arp5 (not stated (human or rat cDNA cloned)) (UniProt Q9H9F9)
Assay: cross-linking

Chain of UniProt Q9H9F9 (Q9H9F9 whole entry): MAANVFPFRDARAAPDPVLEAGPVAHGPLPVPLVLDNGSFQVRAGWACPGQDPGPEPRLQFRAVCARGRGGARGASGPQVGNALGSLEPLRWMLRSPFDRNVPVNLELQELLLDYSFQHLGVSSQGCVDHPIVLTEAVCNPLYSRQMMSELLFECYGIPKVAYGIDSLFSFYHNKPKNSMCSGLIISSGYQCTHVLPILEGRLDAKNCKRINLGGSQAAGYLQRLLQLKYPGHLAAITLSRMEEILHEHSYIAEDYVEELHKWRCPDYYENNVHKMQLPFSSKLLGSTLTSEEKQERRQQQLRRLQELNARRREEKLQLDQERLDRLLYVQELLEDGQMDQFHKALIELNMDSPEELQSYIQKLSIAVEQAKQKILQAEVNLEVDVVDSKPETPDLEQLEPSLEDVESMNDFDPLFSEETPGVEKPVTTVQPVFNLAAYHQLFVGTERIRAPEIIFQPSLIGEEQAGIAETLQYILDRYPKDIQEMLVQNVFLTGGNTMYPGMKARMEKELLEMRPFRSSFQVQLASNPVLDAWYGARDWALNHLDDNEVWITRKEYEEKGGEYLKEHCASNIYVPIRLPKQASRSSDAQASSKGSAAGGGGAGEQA

- stoichiometry N: 1
Substance: GFP-fused 32-amino acid Myocd RPEL1 motif peptide (RPEL1-GFP)
